Experimental data taken from IntAct's records for PubMed 17548821.

Tests used:
lrp8_human LRP8 = lrp8_human LRP8 (UniProt Q14114)
vldlr_human VLDLR = vldlr_human VLDLR (UniProt P98155)

lrp8_human LRP8, sequence (Q14114 whole entry): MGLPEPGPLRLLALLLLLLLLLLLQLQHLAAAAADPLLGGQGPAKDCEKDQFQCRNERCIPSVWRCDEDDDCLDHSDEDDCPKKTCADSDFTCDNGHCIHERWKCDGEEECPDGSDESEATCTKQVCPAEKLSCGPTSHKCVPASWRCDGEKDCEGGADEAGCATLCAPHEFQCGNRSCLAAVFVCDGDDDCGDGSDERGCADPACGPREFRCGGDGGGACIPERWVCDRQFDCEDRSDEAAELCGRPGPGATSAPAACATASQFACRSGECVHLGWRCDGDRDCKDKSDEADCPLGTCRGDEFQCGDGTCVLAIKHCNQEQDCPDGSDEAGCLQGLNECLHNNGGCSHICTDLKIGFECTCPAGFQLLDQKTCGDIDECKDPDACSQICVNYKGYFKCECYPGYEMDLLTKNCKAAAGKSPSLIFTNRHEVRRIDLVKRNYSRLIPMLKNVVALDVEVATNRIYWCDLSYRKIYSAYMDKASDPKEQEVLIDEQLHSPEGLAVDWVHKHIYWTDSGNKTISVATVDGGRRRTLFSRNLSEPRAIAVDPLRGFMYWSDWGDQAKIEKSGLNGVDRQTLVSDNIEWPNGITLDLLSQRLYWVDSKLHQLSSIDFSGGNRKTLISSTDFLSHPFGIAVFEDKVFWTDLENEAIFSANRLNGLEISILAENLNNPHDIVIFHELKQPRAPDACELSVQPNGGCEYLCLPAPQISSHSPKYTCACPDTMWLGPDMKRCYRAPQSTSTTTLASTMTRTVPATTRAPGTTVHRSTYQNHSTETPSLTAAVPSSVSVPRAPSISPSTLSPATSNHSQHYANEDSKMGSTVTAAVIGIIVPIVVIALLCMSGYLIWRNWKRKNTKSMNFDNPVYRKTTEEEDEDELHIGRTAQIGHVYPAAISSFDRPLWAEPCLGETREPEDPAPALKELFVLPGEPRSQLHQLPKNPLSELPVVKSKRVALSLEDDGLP

Row | Substance | effect of a mutation on the interaction (lrp8_human LRP8) | effect of a mutation on the interaction (vldlr_human VLDLR)
1 | Reelin (Mus musculus), Q60841 K2360A | disrupting interaction strength | 
2 | Reelin (Mus musculus), Q60841 K2360A;K2467A | disrupting interaction strength | 
3 | Reelin (Mus musculus), Q60841 K2467A | disrupting interaction strength | disrupting interaction strength
